First the molecules themselves.
B1: HDV Ribozyme (parent)
chain: GGCCGGCAUGGUCCCAGCCUCCUCGCUGGCGCCGGCUGGGCAACAUUCCGAGGGGACCGUCCCCUCGGUAAUGGCGAAUGGGACCCA

In the data set the parent is B1. As to the kind of experiment: self-cleavage, relative activity (ratio to wild type); higher = more cleavage; co-transcriptional.
As to A42C G81C, the self-cleavage stood at 0.0978.
Consider U20C A87G, for which the self-cleavage was 0.282.
Regarding C7G C84A, the self-cleavage was found to be 0.111.
With A51C C63A, the self-cleavage is 0.475.
With C19A C36U, the self-cleavage was determined as 0.0468.
To G17U A83G belongs 0.405.
As for G2U U12G, the self-cleavage worked out at 0.0346.
To G28A G59A belongs 0.0573; to C18U G40C, 0.281; to G10C C24A, 0.692.
As to A78G A83C, the self-cleavage was 0.128.
Turning to U27A U79A, the self-cleavage was 0.612.
On to C58U C61G, for which the self-cleavage was found to be 0.967.
In the case of C19G G52U, the self-cleavage came to 0.145.
As for A71C A87C, the self-cleavage was found to be 0.755.
On to A8G G50A, for which the self-cleavage stood at 1.03.
For U12C C63U, the self-cleavage was found to be 0.389.
On to G34A U60C, for which the self-cleavage was determined as 0.258.
Take G2U G31C: the self-cleavage was determined as 0.0155.
Regarding U23C C32A, the self-cleavage worked out at 0.125.
A8U C32G: the self-cleavage amounted to 0.125.
In the case of C49G G52A, the self-cleavage was determined as 0.543.
G29U G53U: the self-cleavage came to 0.0213.
The figure for C14U C44G is 0.7; for G10U A45G it is 1.07; for A8G C32G it is 0.0573.
Consider C4U G35C, for which the self-cleavage worked out at 0.119.
Take C18A G38U: the self-cleavage came to 0.0652.
Consider A51G A77U, for which the self-cleavage was 0.682.
As to U9A C36A, the self-cleavage was determined as 0.122.
As to U9A C36U, the self-cleavage came to 1.02.
As to C13G G39C, the self-cleavage stood at 0.0462.
On to C75A G82C, for which the self-cleavage amounted to 0.188.
Turning to G5C A56U, the self-cleavage worked out at 0.314.
Take G2U C86G: the self-cleavage is 0.117.
As for A42C A78G, the self-cleavage came out at 0.317.
In the case of G54C C58A, the self-cleavage worked out at 0.923.
Consider G11C A45U, for which the self-cleavage is 0.0554.
The figure for C14U A43G is 0.643; for A43U C86G it is 0.325.
As to C15U U46C, the self-cleavage amounted to 0.9.
Consider U79A C85A, for which the self-cleavage is 0.724.
On to G38U G67A, for which the self-cleavage came to 0.237.
As for G29C G74C, the self-cleavage worked out at 0.032.
Regarding C19G A78U, the self-cleavage came out at 0.0773.
G40C G76A: the self-cleavage came to 0.163.
A56U G82A: the self-cleavage is 0.543.
On to C41U C61A, for which the self-cleavage amounted to 1.12.
On to G35A A56C, for which the self-cleavage worked out at 0.346.
Take U72C A77U: the self-cleavage is 0.285.
C14A C19A: the self-cleavage was 0.0639.
With U23G C85G, the self-cleavage turned out to be 0.643.
On to G6A C85G, for which the self-cleavage came to 0.608.
Consider G2U G34C, for which the self-cleavage worked out at 0.0484.
For the variant A78G U79C, the self-cleavage was found to be 0.225.
The figure for C63U C84G is 0.63; for U69A A83U it is 0.427; for U9G A77U it is 0.604.
In the case of G52U A71G, the self-cleavage stood at 0.901.
Consider U9C G39U, for which the self-cleavage was 0.665.
For the variant C4G U72C, the self-cleavage was 0.0426.
For the variant C61A G68U, the self-cleavage came to 0.623.
As to G54C A78C, the self-cleavage amounted to 0.191.
As to G31U A70G, the self-cleavage stood at 0.48.
Turning to C61U A87U, the self-cleavage was determined as 0.959.
Turning to C14U C22G, the self-cleavage stood at 0.155.
To G31U C61A belongs 0.38; to G17U C63A, 0.517; to G6U A8C, 0.447.
Turning to A43C A70C, the self-cleavage was found to be 0.35.
Take C24U C44U: the self-cleavage was 0.434.
In the case of G10U C63A, the self-cleavage was 0.845.
Take G40C C75U: the self-cleavage was determined as 0.0652.
As for U9C A70G, the self-cleavage turned out to be 1.25.
With A43U C58U, the self-cleavage worked out at 0.462.
On to U27G A42U, for which the self-cleavage came out at 0.229.
Turning to C41A A51U, the self-cleavage amounted to 0.981.
Turning to G5U C24U, the self-cleavage came out at 0.115.
Consider A42C G76U, for which the self-cleavage amounted to 0.734.
For the variant A71U G76U, the self-cleavage amounted to 1.17.
To U9A G34C belongs 0.375; to C7U U60A, 0.682; to C4A C19G, 0.0339.
The figure for G39A A42U is 0.272; for A51C G76U it is 1.11; for C18A C75A it is 0.0906.
For the variant G6U G68C, the self-cleavage came out at 0.383.
To G6C G74U belongs 0.196; to A8G G10C, 0.665.
The figure for G38A C44U is 0.136.
As for C13U C84U, the self-cleavage came to 0.361.
Regarding G55C C61A, the self-cleavage amounted to 1.06.
To A70C A83U belongs 0.475; to G28A C48G, 0.
As to G52U U60G, the self-cleavage worked out at 0.978.
C14U C26G: the self-cleavage was found to be 0.76.
C7G C57A: the self-cleavage is 0.434.
To C4A C26U belongs 0.415; to C15A C62U, 0.764; to A16U G55C, 0.98.
To A16C A43C belongs 0.415.
To G6C U60G belongs 0.312; to G67C, 0.976; to C4U G5C, 0.166.
In the case of G29A A42U, the self-cleavage was found to be 0.222.
Take C22U C58A: the self-cleavage was 0.914.
To G50C U69G belongs 1.05; to G1C U12G, 0.145.
For the variant G31C G80C, the self-cleavage was 0.0615.
For C58G A77U, the self-cleavage came to 0.388.
As to C7U C57G, the self-cleavage amounted to 1.2.
The figure for U20C C62G is 0.0665; for U9A C66G it is 1.1; for C64G A70U it is 0.978.
The figure for C33U U46A is 0.434; for C3A U47C it is 0.422; for C4G it is 0.376.
To C26A U69A belongs 0.985; to U20A U47A, 0.104.
As for G40U G52A, the self-cleavage was 0.513.
To C26U G59A belongs 1.08.
On to C14A A70C, for which the self-cleavage is 0.467.
The figure for G1U C41U is 0.228.
In the case of U72C A78U, the self-cleavage came to 0.249.
For the variant U46G G67A, the self-cleavage was 0.527.
For G35U A70G, the self-cleavage worked out at 0.554.
For the variant C14G C61G, the self-cleavage came to 0.782.
The figure for U23A U60A is 0.98; for C36A C64U it is 0.237; for U60C G73C it is 0.465.
To G31C C36A belongs 0.0277; to C3A C85A, 0.646.
Consider A45U G68A, for which the self-cleavage amounted to 0.712.
As for C7U C44U, the self-cleavage stood at 0.374.
For the variant G34C C41G, the self-cleavage is 0.107.
Take G54A C85U: the self-cleavage amounted to 0.808.
To C36G C64U belongs 0.138; to C57G C61G, 1.08.
To G67A G76A belongs 0.975; to U37G A56U, 0.0723; to U12A C14G, 0.145.
Consider G25C C57A, for which the self-cleavage was 0.166.
In the case of C18G C58G, the self-cleavage stood at 0.
With G34A U37A, the self-cleavage was determined as 0.0554.
In the case of G34A U37C, the self-cleavage amounted to 0.102.
As to G35C C41A, the self-cleavage was 0.237.
Take C18U C36U: the self-cleavage amounted to 0.198.
As for C30G G74C, the self-cleavage was determined as 0.108.
Regarding C4A G35C, the self-cleavage amounted to 0.086.
Take G17A C48U: the self-cleavage turned out to be 0.785.
As for A51U C66U, the self-cleavage was determined as 1.07.
Take U47G C58U: the self-cleavage is 0.942.
Regarding A8C G10U, the self-cleavage was found to be 0.415.
For G31C C57U, the self-cleavage amounted to 0.445.
G53A C86U: the self-cleavage came out at 0.881.
The figure for G50A U69C is 0.688; for G39C U69G it is 0.133.
To A45G U46G belongs 0.643; to U65G G74A, 0.3.
On to C57A, for which the self-cleavage came out at 1.05.
G11U U27A: the self-cleavage came out at 0.511.
In the case of G1C G17C, the self-cleavage was determined as 0.
As to C32U C75G, the self-cleavage is 0.17.
Take U12A G50A: the self-cleavage came out at 0.229.
As for U23A U47G, the self-cleavage was 0.748.
On to C30U C75G, for which the self-cleavage came out at 0.0554.
As for G10A C64G, the self-cleavage amounted to 0.749.

The values are drawn from the RNAGym collection of RNA variant scans (doi:10.7554/elife.80360).
